Legend:
human PVR on CHO cells = target: T1, human PVR on CHO cells (human, UniProt P15151 28-417); assay: flow cytometry on CHO cells expressing human PVR
T1 construct: also called PVR (Nectin-5)
T1 sequence: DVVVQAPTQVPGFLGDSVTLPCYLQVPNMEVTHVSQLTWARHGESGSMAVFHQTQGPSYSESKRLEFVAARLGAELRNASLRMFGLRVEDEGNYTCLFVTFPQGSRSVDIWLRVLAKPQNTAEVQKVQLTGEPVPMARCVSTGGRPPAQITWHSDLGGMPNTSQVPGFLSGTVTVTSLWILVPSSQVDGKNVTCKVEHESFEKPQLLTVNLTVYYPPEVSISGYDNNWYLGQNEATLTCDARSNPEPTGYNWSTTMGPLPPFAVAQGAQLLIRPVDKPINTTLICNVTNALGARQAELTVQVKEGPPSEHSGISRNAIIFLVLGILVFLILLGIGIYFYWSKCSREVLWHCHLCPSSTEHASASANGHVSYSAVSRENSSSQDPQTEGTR
Experimental: Anti-Nectin-4 antibodies were tested by flow cytometry for binding to different CHO cell lines made to express respectively the human Nectin 1, Nectin 2, Nectin 3 and PVR proteins. The expression of each cell lines was controlled and validated with known respectively the anti-human Nectin1, anti-human Nectin2, anti-human Nectin3 and anti-human PVR antibodies. The mature amino acid sequence of the proteins expressed by the cells were as follows:
Nectin 1, Nectin 2, Nectin 3 and PVR proteins as in Example 12. […] Epitope mapping was carried out by assessing competition for binding to Nectin-4 by SPR as in Example 14.

[1] = target: T2, human Nectin-4 Mutant 7bis (human, UniProt Q96NY8 32-510); assay: binding to HEK-293T cells transfected with the Nectin-4 mutant
T2 construct: Expressed on transfected HEK-293T cells; also called A72P/G73N/K197T/S199A
T2 chain: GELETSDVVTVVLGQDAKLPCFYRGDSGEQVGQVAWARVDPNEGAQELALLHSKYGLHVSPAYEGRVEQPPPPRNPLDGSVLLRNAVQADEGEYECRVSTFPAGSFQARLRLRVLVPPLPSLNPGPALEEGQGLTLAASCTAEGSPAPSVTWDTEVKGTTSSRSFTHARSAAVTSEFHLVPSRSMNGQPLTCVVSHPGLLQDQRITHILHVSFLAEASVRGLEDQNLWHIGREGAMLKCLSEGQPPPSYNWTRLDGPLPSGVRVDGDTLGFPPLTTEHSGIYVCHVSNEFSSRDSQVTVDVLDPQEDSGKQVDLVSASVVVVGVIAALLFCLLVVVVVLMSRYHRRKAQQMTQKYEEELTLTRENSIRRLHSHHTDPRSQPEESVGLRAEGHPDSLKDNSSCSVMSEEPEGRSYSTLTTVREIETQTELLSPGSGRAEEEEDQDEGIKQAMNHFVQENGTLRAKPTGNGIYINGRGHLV

human Nectin-4 Mutant 7 = target: T3, human Nectin-4 Mutant 7 (human, UniProt Q96NY8 32-510); assay: as above
T3 construct: Expressed on transfected HEK-293T cells; also called S195A/K197T/S199A
T3 chain: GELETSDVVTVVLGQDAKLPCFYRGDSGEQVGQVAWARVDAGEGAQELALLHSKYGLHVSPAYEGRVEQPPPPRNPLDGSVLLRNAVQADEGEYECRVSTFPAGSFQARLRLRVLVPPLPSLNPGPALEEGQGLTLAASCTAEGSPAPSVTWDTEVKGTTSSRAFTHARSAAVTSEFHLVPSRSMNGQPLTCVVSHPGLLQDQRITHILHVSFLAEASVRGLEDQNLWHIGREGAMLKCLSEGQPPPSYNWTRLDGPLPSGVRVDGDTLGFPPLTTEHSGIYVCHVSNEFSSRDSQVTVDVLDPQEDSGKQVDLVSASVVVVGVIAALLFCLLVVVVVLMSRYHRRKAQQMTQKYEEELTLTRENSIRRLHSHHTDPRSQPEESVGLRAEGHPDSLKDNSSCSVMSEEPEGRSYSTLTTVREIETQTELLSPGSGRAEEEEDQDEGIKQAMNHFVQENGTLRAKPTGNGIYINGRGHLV

[2] = target: T4, wild-type human Nectin-4 on the CHO huNectin4 Cl.3C8 cell line (human, UniProt Q96NY8 32-510); assay: flow cytometry on wild-type human Nectin-4 cell line
T4 construct: also called whole Nectin-4 protein; huNectin4 CI.3C8
T4 sequence: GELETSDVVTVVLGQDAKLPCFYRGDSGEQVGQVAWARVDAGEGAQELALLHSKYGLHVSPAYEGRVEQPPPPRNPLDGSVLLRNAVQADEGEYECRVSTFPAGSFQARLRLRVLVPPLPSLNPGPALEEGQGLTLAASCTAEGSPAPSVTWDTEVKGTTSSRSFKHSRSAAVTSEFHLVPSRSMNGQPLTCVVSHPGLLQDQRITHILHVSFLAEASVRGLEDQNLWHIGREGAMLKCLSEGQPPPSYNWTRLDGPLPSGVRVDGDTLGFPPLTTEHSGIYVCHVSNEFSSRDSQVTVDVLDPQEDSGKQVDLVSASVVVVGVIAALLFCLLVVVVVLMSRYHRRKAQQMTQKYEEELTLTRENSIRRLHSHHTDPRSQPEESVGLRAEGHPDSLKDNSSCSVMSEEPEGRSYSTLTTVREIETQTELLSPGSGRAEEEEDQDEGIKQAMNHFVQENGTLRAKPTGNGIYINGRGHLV

[3] = target: T5, huNectin4-C1C2-V5 (C1C2 construct, lacking the Ig-like V domain) (human, UniProt Q96NY8 148-510); assay: flow cytometry on Nectin4-C1C2-V5 sorted cells
T5 construct: Expressed on CHO cells; also called Hu-Nectin4 IgC1C2-V5; Nectin4-C1C2-V5 sorted cells
T5 sequence: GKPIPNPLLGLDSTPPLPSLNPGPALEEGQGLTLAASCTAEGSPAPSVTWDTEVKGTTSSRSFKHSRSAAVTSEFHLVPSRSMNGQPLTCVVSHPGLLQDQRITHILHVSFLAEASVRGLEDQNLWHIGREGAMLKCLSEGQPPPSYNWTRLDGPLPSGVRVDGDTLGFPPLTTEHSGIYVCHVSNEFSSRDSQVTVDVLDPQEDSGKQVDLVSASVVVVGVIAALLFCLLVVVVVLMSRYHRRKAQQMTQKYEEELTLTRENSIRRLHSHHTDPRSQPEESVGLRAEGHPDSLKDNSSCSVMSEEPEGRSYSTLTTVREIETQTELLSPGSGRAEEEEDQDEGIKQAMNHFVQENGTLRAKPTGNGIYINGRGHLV

binding result (human PVR on CHO cells): no binding
binding result [1]: no binding
binding result (human Nectin-4 Mutant 7): no binding
binding result [2]: binds
binding result [3]: binds
B1: antibody 6A7 (antibody, human IgG1, V domains shown)
VH: QVQLKESGAELVKPGASVKLSCKASGYTFTSYWMHWVKQRPGHGLEWVGEIDPSDSYTNYNQKFKGKATLTIDKSSSTVYMQLSSLTSEDSAVYYCARSGNYDAMDYWGQGTSVTVSA
VL: DIVMTQAAFSSAVTLGTSASISCRSSKSLLHSNGITYLYWYLQKPGQSPHFLIYQMSNLASGVPDRFTSSGSGTDFTLRISRVEAEDVGVYYCAQNLELPWTFGGGTKLEIK
notes: also called CHG1-M-4N4-6A7

Reference: patent publication US20240325557A1 (INNATE PHARMA, published 2024)
